This is an account of results in patent US20250340613A1 (JOINT STOCK COMPANY BIOCAD, published 2025).

For experiment [1], the target named is T1, biotinylated peptide [NH2]…JQS[CH2CH2]biotin comprising a fragment of the human CD20 sequence (human, [NH2] at the N-terminus; [CH2CH2]biotin at the C-terminus; the letter J at position 20 is printed so and is not a standard residue code).
T1 construct: also called CD20 peptide
Kind of experiment: BLI Octet RED 384; biotinylated peptide on SAX sensor, antibody in solution; 1:1 global fit. The procedure: In the case of the biotinylated CD20 peptide, the peptide at a concentration of 5 μg/ml was immobilized on the surface of SAX sensors (High Precision Streptavidin (SAX) biosensors, ForteBio) for 120 seconds. The baseline was recorded in a 1×KB solution for 120 seconds. The sensors containing the loaded peptide were immersed into wells containing the antibody solution (analyte) in 1×KB for 15 seconds. Measurements were carried out for solutions with analyte (antibodies in the case of CD20 peptide) at concentrations of 150 μg/ml, 75 μg/ml, 37.5 μg/ml. Complex dissociation was recorded in 1×KB for 120 seconds.
All measurements were carried out at 30° C., orbital mixing speed was 1,000 revolutions per minute.
To obtain numerical values of kinetic constants (kₒₙ is the on/association rate constant, kdis is the dissociation rate constant, KD is the equilibrium dissociation constant or affinity constant), the resulting sensograms were processed according to the 1:1 interaction model using Global Fit (selection of one set of kon, kdis, KD constants to analyze several sensograms of different concentrations) of the ForteBio Octet Data Analysis 9.0 software.
Background: Biolayer interferometry detects binding as a change in optical thickness at a sensor tip.

Experiment [2] addresses T2, hIL4R-His, Interleukin-4 receptor subunit alpha (Homo sapiens) aa 27-227 (Homo sapiens, UniProt P24394 27-227).
T2 construct: range 27-227; not shown: His tag as the name implies
T2 sequence (looked up): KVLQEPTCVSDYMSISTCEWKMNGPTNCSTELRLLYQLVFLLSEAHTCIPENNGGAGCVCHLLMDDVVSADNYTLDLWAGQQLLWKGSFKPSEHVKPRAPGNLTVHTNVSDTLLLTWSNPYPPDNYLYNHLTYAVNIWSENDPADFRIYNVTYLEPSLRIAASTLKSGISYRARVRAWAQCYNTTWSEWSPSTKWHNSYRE
Kind of experiment: BLI Octet RED 384; antibody on ProA sensor, antigen 30 ug/ml.

For experiment [3], the target named is T3, Her3-H6F, Receptor tyrosine-protein kinase erbB-3 (Homo sapiens) aa 21-643 (Homo sapiens, UniProt P21860 21-643).
T3 construct: not shown: His and FLAG tags implied by the name 'H6F'
The experiment is described as above.

For experiment [4], the target named is T4, extracellular domain of the human CSF1R protein (hCSF1R_His) (Homo sapiens, UniProt P07333 20-512).
T4 construct: range 20-512; Molecular weight 57.4 kDa; made in CHO cells; also called hCSF1_His; not shown: C-terminal His and FLAG tags
Described as above.

The Kd is the constant that tells how readily two partners part at equilibrium. Low values mean tighter binding, high ones weaker binding. For orientation: koff means a measure of how fast the partners let go of each other. Low readings indicate a long-lived complex, high ones a short-lived complex. Usually kon stands for the rate constant with which the complex forms. A higher kon goes with faster complex formation.

T1 sequence (peptide, as listed by the source): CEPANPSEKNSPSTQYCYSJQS
T4 sequence (P07333 20-512 limits assumed): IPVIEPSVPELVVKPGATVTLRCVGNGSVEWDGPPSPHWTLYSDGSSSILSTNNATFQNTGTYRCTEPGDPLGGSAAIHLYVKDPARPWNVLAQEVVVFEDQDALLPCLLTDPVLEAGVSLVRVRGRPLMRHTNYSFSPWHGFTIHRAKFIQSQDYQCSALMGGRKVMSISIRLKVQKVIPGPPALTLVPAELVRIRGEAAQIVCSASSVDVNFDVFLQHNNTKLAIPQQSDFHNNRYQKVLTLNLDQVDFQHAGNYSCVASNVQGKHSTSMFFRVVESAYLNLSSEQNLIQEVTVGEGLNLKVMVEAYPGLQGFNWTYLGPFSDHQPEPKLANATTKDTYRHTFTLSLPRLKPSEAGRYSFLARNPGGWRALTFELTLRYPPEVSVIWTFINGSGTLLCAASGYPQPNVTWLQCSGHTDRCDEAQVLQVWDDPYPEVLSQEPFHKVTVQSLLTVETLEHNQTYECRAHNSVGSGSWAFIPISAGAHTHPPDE
T3 sequence (P21860 21-643 limits assumed): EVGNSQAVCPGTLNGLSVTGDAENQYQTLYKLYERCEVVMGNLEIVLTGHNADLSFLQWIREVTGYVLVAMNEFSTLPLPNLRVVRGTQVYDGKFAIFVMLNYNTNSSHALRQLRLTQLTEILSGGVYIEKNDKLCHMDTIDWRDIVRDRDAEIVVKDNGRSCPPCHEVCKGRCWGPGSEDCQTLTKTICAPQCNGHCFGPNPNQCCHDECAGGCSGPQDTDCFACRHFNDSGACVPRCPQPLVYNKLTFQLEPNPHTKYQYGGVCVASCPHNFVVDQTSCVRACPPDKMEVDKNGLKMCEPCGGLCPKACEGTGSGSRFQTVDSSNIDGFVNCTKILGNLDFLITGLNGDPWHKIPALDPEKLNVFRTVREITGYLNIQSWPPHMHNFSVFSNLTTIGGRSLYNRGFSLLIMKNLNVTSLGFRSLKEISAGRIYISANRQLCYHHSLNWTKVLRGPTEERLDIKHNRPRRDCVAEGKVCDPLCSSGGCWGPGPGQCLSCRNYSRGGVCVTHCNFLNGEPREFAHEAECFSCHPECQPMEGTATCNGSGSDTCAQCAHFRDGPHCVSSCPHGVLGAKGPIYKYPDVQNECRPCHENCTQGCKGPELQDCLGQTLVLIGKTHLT

B1: 02-004, bivalent bispecific chimeric antibody that specifically binds to PD1 and CD20 (bispecific antibody, human IgG1, kappa, L234A L235A)
heavy 1: QVQLVQSGGGLVQPGGSLRLSCAASGFTFSSYWMYWVRQVPGKGLEWVSAIDTGGGRTYYADSVKGRFAISRVNAKNTMYLQMNSLRAEDTAVYYCARDEGGGTGWGVLKDWPYGLDAWGQGTLVTVSSASTKGPSVFPLAPSSKSTSGGTAALGCLVKDYFPEPVTVSWNSGALTSGVHTFPAVLQSSGLYSLSSVVTVPSSSLGTQTYICNVNHKPSNTKVDKRVEPKSCDKTHTCPPCPAPEAAGGPSVFLFPPKPKDTLYITREPEVTCVVVDVSHEDPEVKFNWYVDGVEVHNAKTKPREEQYNSTYRVVSVLTVLHQDWLNGKEYKCKVSNKALPAPIEKTISKAKGQPREPQVCTLPPSRDELTKNQVSLSCAVKGFYPSDIAVEWESNGQPENNYKTTPPVLDSDGSFFLVSKLTVDKSRWQQGNVFSCSVMHEALHNHYTQKSLSLSPGK
light 1: QPVLTQPLSVSVALGQTARITCGGNNIGSKNVHWYQQKPGQAPVLVIYRDSNRPSGIPERFSGSNSGNTATLTISRAQAGDEADYYCQVWDSSTAVFGTGTKLTVLQRTVAAPSVFIFPPSDEQLKSGTASVVCLLNNFYPREAKVQWKVDNALQSGNSQESVTEQDSKDSTYSLSSTLTLSKADYEKHKVYACEVTHQGLSSPVTKSFNRGEC
heavy 2: not shown
light 2: DIQMTQSPSSLSASVGDRVTITCRASSSVSYMHWYQQKPGKAPKPLIYAPSNLASGVPSRFSGSGSGTDFTLTISSLQPEDFATYYCQQWSFNPPTFGQGTKVEIKQRQVKPEAWLSSGPSPGPGRLQLVCHVSGFYPKPVWVMWMRGEQEQQGTQLGDILPNANWTWYLRATLDVADGEAAGLSCRVKHSSLEGQDIILYWRGSC
notes: Produced in CHO cells
In experiment [1], B1 gave a Kd of 1.27 µM. Also, in experiment [1], the koff turned out to be 0.238 s⁻¹. In experiment [1], this molecule gave a kon of 188000 M⁻¹ s⁻¹. For the same molecule, the binding result in experiment [2] is on record as “no binding (tested: 1154 nM)”; in experiment [3], “no binding (tested: 420.8 nM)”; in experiment [4] it was “no binding (tested: 522.5 nM)”.
